CN114106160A

Biological target: SARS-CoV-2 S1蛋白 (ACRO Biosystems) (SARS-CoV-2) (UniProt P0DTC2)
Experiment: BLI, biotinylated SARS-CoV-2 S1 on SA sensor, antibody as analyte, 1:1 model

## 人源抗体CR3022 (antibody)
  Kd: 0.0866 nM
  koff: 1.9e-05 s⁻¹
  kon: 220000 M⁻¹ s⁻¹
